Reference: the supplement of paper PMC5998384

Assays:
HeLa Kyoto [1] = experiment: melting temperature (median over replicates), in situ; higher = more thermally stable
HeLa Kyoto [2] = experiment: solubility change mitosis vs G1/S (difference of NP-40 vs SDS log2 ratios) (log2 ratio difference); higher = more soluble in mitosis
HeLa Kyoto [3] = experiment: thermal stability score vs G1/S (z-score of summed log2 fold changes over temperatures); higher = more thermally stable than in G1/S
HeLa Kyoto [4] = experiment: solubility in G1/S (NP-40 vs SDS abundance) (log2 ratio); higher = more soluble; conditions: cell cycle stage: G1/S
[5] = cell cycle stage: early G1 (4.5 h after nocodazole release)
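Wherever melting temperature (median over replicates), in situ is given: HeLa Kyoto cells synchronized by double thymidine or nocodazole block, proteins quantified by TMT10plex mass spectrometry, three independent biological replicates.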
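Wherever solubility change mitosis vs G1/S (difference of NP-40 vs SDS log2 ratios) is given: synchronized HeLa Kyoto cells (double thymidine block for G1/S, nocodazole release for mitosis), protein amounts in NP-40 versus SDS lysates quantified by mass spectrometry, three biological replicates.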
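Wherever solubility in G1/S (NP-40 vs SDS abundance) is given: HeLa Kyoto cells arrested at G1/S by double thymidine block, proteins quantified by TMT10plex mass spectrometry in mild NP-40 versus SDS extracts, three biological replicates.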
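Wherever thermal stability score vs G1/S (z-score of summed log2 fold changes over temperatures) is given: synchronized HeLa Kyoto cells, proteins quantified by TMT10plex mass spectrometry, three biological replicates, mitosis taken 0.5 h after nocodazole release, G1/S directly after double thymidine block.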

With “MVSHGSSPSLLEALSSDFLACKICLEQLRAPKTLPCLHTYCQDCLAQLADGGRVRCPECRETVPVPPEGVASFKTNFFVNGLLDLVKARACGDLRAGKPACALCPLVGGTSTGGPATARCLDCADDLCQACADGHRCTRQTHTHRVVDLVGYRAGWYDEEARERQAAQCPQHPGEALRFLCQPCSQLLCRECRLDPHLDHPCLPLAEAVRARRPGLEGLLAGVDNNLVELEAARRVEKEALARLREQAARVGTQVEEAAEGVLRALLAQKQEVLGQLRAHVEAAEEAARERLAELEGREQVARAAAAFARRVLSLGREAEILSLEGAIAQRLRQLQGCPWAPGPAPCLLPQLELHPGLLDKNCHLLRLSFEEQQPQKDGGKDGAGTQGGEESQSRREDEPKTERQGGVQPQAGDGAQTPKEEKAQTTREEGAQTLEEDRAQTPHEDGGPQPHRGGRPNKKKKFKGRLKSISREPSPALGPNLDGSGLLPRPIFYCSFPTRMPGDKRSPRITGLCPFGPREILVADEQNRALKRFSLNGDYKGTVPVPEGCSPCSVAALQSAVAFSASARLYLINPNGEVQWRRALSLSQASHAVAALPSGDRVAVSVAGHVEVYNMEGSLATRFIPGGKASRGLRALVFLTTSPQGHFVGSDWQQNSVVICDGLGQVVGEYKGPGLHGCQPGSVSVDKKGYIFLTLREVNKVVILDPKGSLLGDFLTAYHGLEKPRVTTMVDGRYLVVSLSNGTIHIFRVRSPDS [TRIM56]” the melting temperature (HeLa Kyoto [1]; cell cycle stage: G1/S) was 52.4 °C, the melting temperature (HeLa Kyoto [1]; cell cycle stage: mitosis) was 50.7 °C and the “solubility change mitosis (log2)” value (HeLa Kyoto [2]) was 0.0648. The thermal stability score (HeLa Kyoto [3]; [5]) was 0.0282, the thermal stability score (HeLa Kyoto [3]; cell cycle stage: mitosis) was 0.527 and the “solubility in G1/S (log2)” value (HeLa Kyoto [4]) was -0.379.
In the case of “MVSPATRKSLPKVKAMDFITSTAILPLLFGCLGVFGLFRLLQWVRGKAYLRNAVVVITGATSGLGKECAKVFYAAGAKLVLCGRNGGALEELIRELTASHATKVQTHKPYLVTFDLTDSGAIVAAAAEILQCFGYVDILVNNAGISYRGTIMDTTVDVDKRVMETNYFGPVALTKALLPSMIKRRQGHIVAISSIQGKMSIPFRSAYAASKHATQAFFDCLRAEMEQYEIEVTVISPGYIHTNLSVNAITADGSRYGVMDTTTAQGRSPVEVAQDVLAAVGKKKKDVILADLLPSLAVYLRTLAPGLFFSLMASRARKERKSKNS [DHRS7B]”, the melting temperature (HeLa Kyoto [1]; cell cycle stage: G1/S) is reported as 51.6 °C, the melting temperature (HeLa Kyoto [1]; cell cycle stage: mitosis) is reported as 51.4 °C and the “solubility change mitosis (log2)” value (HeLa Kyoto [2]) is reported as -0.121. The thermal stability score (HeLa Kyoto [3]; [5]) was -0.951, the thermal stability score (HeLa Kyoto [3]; cell cycle stage: mitosis) was -0.984 and the “solubility in G1/S (log2)” value (HeLa Kyoto [4]) was -0.22.
“MVSVINTVDTSHEDMIHDAQMDYYGTRLATCSSDRSVKIFDVRNGGQILIADLRGHEGPVWQVAWAHPMYGNILASCSYDRKVIIWREENGTWEKSHEHAGHDSSVNSVCWAPHDYGLILACGSSDGAISLLTYTGEGQWEVKKINNAHTIGCNAVSWAPAVVPGSLIDHPSGQKPNYIKRFASGGCDNLIKLWKEEEDGQWKEEQKLEAHSDWVRDVAWAPSIGLPTSTIASCSQDGRVFIWTCDDASSNTWSPKLLHKFNDVVWHVSWSITANILAVSGGDNKVTLWKESVDGQWVCISDVNKGQGSVSASVTEGQQNEQ [SEC13]” was tested, and the melting temperature (HeLa Kyoto [1]; cell cycle stage: G1/S) was 50.5 °C, the melting temperature (HeLa Kyoto [1]; cell cycle stage: mitosis) was 50.4 °C and the “solubility change mitosis (log2)” value (HeLa Kyoto [2]) was -0.09. For the same sequence, the thermal stability score (HeLa Kyoto [3]; [5]) was -0.768, the thermal stability score (HeLa Kyoto [3]; cell cycle stage: mitosis) was -0.265 and the “solubility in G1/S (log2)” value (HeLa Kyoto [4]) was -0.204.
“MVVTRSARAKASIQAASAESSGQKSFAANGIQAHPESSTGSDARTTAESQTTGKQSLIPRTPKARKRKSRTTGSLPKGTEPSTDGETSEAESNYSVSEHHDTILRVTRRRQILIACSPVSSVRKKPKVTPTKESYTEEIVSEAESHVSGISRIVLPTEKTTGARRSKAKSLTDPSQESHTEAISDAETSSSDISFSGIATRRTRSMQRKLKAQTEKKDSKIVPGNEKQIVGTPVNSEDSDTRQTSHLQARSLSEINKPNFYNNDFDDDFSHRSSENILTVHEQANVESLKETKQNCKDLDEDANGITDEGKEINEKSSQLKNLSELQDTSLQQLVSQRHSTPQNKNAVSVHSNLNSEAVMKSLTQTFATVEVGRWNNNKKSPIKASDLTKFGDCGGSDDEEESTVISVSEDMNSEGNVDFECDTKLYTSAPNTSQGKDNSVLLVLSSDESQQSENSENEEDTLCFVENSGQRESLSGDTGSLSCDNALFVIDTTPGMSADKNFYLEEEDKASEVAIEEEKEEEEDEKSEEDSSDHDENEDEFSDEEDFLNSTKAKLLKLTSSSIDPGLSIKQLGGLYINFNADKLQSNKRTLTQIKEKKKNELLQKAVITPDFEKNHCVPPYSESKYQLQKKRRKERQKTAGDGWFGMKAPEMTNELKNDLKALKMRASMDPKRFYKKNDRDGFPKYFQIGTIVDNPADFYHSRIPKKQRKRTIVEELLADSEFRRYNRRKYSEIMAEKAANAAGKKFRKKKKFRN [DNTTIP2]” was tested, and the melting temperature (HeLa Kyoto [1]; cell cycle stage: G1/S) was 48.9 °C, the melting temperature (HeLa Kyoto [1]; cell cycle stage: mitosis) was 52.4 °C and the “solubility change mitosis (log2)” value (HeLa Kyoto [2]) was 1.04. The thermal stability score (HeLa Kyoto [3]; [5]) was 2.7, the thermal stability score (HeLa Kyoto [3]; cell cycle stage: mitosis) was 4.77 and the “solubility in G1/S (log2)” value (HeLa Kyoto [4]) was -2.06.
With “MVWDRQTKMEYEWKPDEQGLQQILQLLKESQSPDTTIQRTVQQKLEQLNQYPDFNNYLIFVLTKLKSEDEPTRSLSGLILKNNVKAHFQNFPNGVTDFIKSECLNNIGDSSPLIRATVGILITTIASKGELQNWPDLLPKLCSLLDSEDYNTCEGAFGALQKICEDSAEILDSDVLDRPLNIMIPKFLQFFKHSSPKIRSHAVACVNQFIISRTQALMLHIDSFIENLFALAGDEEPEVRKNVCRALVMLLEVRMDRLLPHMHNIVEYMLQRTQDQDENVALEACEFWLTLAEQPICKDVLVRHLPKLIPVLVNGMKYSDIDIILLKGDVEEDETIPDSEQDIRPRFHRSRTVAQQHDEDGIEEEDDDDDEIDDDDTISDWNLRKCSAAALDVLANVYRDELLPHILPLLKELLFHHEWVVKESGILVLGAIAEGCMQGMIPYLPELIPHLIQCLSDKKALVRSITCWTLSRYAHWVVSQPPDTYLKPLMTELLKRILDSNKRVQEAACSAFATLEEEACTELVPYLAYILDTLVFAFSKYQHKNLLILYDAIGTLADSVGHHLNKPEYIQMLMPPLIQKWNMLKDEDKDLFPLLECLSSVATALQSGFLPYCEPVYQRCVNLVQKTLAQAMLNNAQPDQYEAPDKDFMIVALDLLSGLAEGLGGNIEQLVARSNILTLMYQCMQDKMPEVRQSSFALLGDLTKACFQHVKPCIADFMPILGTNLNPEFISVCNNATWAIGEISIQMGIEMQPYIPMVLHQLVEIINRPNTPKTLLENTAITIGRLGYVCPQEVAPMLQQFIRPWCTSLRNIRDNEEKDSAFRGICTMISVNPSGVIQDFIFFCDAVASWINPKDDLRDMFCKILHGFKNQVGDENWRRFSDQFPLPLKERLAAFYGV [TNPO1]” the melting temperature (HeLa Kyoto [1]; cell cycle stage: G1/S) was 50.3 °C, the melting temperature (HeLa Kyoto [1]; cell cycle stage: mitosis) was 49.7 °C and the “solubility change mitosis (log2)” value (HeLa Kyoto [2]) was -0.175. For the same sequence, the thermal stability score (HeLa Kyoto [3]; [5]) was 1.15, the thermal stability score (HeLa Kyoto [3]; cell cycle stage: mitosis) was -1.3 and the “solubility in G1/S (log2)” value (HeLa Kyoto [4]) was -0.146.
